The values that follow come from publication PMC11044165, “Two Novel [^68Ga]Ga-Labeled Radiotracers Based on Metabolically Stable [Sar^11]RM26 Antagonistic Peptide for Diagnostic Positron Emission Tomography Imaging of GRPR-Positive Prostate Cancer” (ACS Omega, 2024).

The subject of series [1] is PC-3 bearing mice. The note with it: mouse, in vivo; cited from earlier work. As for the experimental part: It is quite interesting to compare the biodistribution results for the two new conjugates with their counterparts without the Gly^11/Sar^11 substitution, i.e., [^68Ga]Ga-NOTA-PEG2-RM26 and [^68Ga]Ga-NODAGA-PEG2-RM26, previously reported.[24] Despite the similar amounts of peptide and activity injected, the biodistribution data for [^68Ga]Ga-NOTA-PEG2-RM26 and [^68Ga]Ga-NODAGA-PEG2-RM26, in PC-3 bearing mice, are reported only for […].[24] Under these conditions, we are going to focus on a comparison with the data for 3 h pi.

For series [2] the following is noted: in vivo; cited from earlier work. An excerpt: In agreement with their preclinical data, SUV values for the pancreas for [^68Ga]Ga-SB3 and [^68Ga]Ga-RM2 were around 40, while for [^68Ga]Ga-PEG3-RM26, this value was 2-fold lower.
Series [3] can be described thus: in vivo. The arrangement: species or system BALB/C nu/nu mice. The note with it: BALB/C nu/nu, mouse, iv, total radioactivity. Here is the method: In vivo studies were conducted in accordance with European guidelines on laboratory animal protection and the Declaration of Helsinki. For the biodistribution and PET/CT experiments BALB/C nu/nu mice were used and the protocols were approved by the ethics committee for animal research in Uppsala (Sweden); permit number 00473/21.
After acclimatization, animals were subcutaneously injected on the right hind leg with a suspension of freshly harvested PC-3 cells (7 × 10^6 per animal) in PBS. Four weeks after, well palpable solid tumors were developed and the animals were randomly assigned in groups of four.
Animals (19 ± 2 g at the day of the experiment) were injected through the tail vein with 100 μL solution of radiopeptide under evaluation (40 pmol, 100 kBq–1 h pi, 40 pmol, 700 kBq–3 h pi) in PBS containing 1% w/v BSA. Another group of animals received a bolus injection with the radioconjugate (40 pmol, 300 kBq) in addition of 4 nmol of NOTA-PEG2-RM26–1 h pi Block group. At specified time points, animals were euthanized, tissues/organs of interest and tumors were collected, weighted, and the radioactivity content of the samples was measured.
Statistical analysis for the biodistribution data was performed with GraphPad Prism 7, employing a two-way ANOVA test with Tuckey’s posthoc analysis.

The mark [4] stands for this setting: 40 pmol, Activity in GI (gastrointestinal tract).
The mark [5] stands for this setting: 40 pmol, Activity uptake in blood.
Setting [6] is: 40 pmol, Activity uptake in kidneys.
Where [7] appears, read: 40 pmol, Activity uptake in tumor.
Setting [8] is: Activity in GI (gastrointestinal tract).

Take “NOTA-PEG3-d-Phe-Gln-Trp-Ala-Val-Gly-His-Sta-Leu-NH2 [[^68Ga]Ga-NOTA-PEG3-RM26, GRPR-targeting radioconjugate tested in clinical trials]”: the Tumor/pancreas ratio entry in series [1] is reported as “over 1”. The “SUV values for the pancreas” value in series [2] is reported as 2-fold lower.

On to “DOTA-Pip-DPhe-Gln-Trp-Ala-Val-Gly-His-Sta-Leu-NH2 [[^68Ga]Ga-RM2, GRPR-targeting radioconjugate tested in clinical trials]”, for which the “SUV values for the pancreas” value in series [2] was “around 40”.

Take “DOTA-p-aminomethylaniline-diglycolic acid-DPhe-Gln-Trp-Ala-Val-Gly-His-Leu-NHEt [[^68Ga]Ga-SB3, GRPR-targeting radioconjugate tested in clinical trials]”: the “SUV values for the pancreas” value in series [2] was “around 40”.

The tissue uptake is the share of the injected amount in each gram of the tissue. On to `CC(C)C[C@H](NC(=O)C[C@H](O)[C@H](CC(C)C)NC(=O)[C@H](Cc1c[nH]cn1)NC(=O)CN(C)C(=O)[C@@H](NC(=O)[C@H](C)NC(=O)[C@H](Cc1c[nH]c2ccccc12)NC(=O)[C@H](CCC(N)=O)NC(=O)[C@@H](Cc1ccccc1)NC(=O)COCCOCCNC(=O)CN1CCN(CC(=O)O)CCN(CC(=O)O)CC1)C(C)C)C(N)=O` [[^68Ga]Ga-NOTA-PEG2-[Sar^11]RM26, metal not drawn], for which the tissue uptake dose at 1 h in series [3] (setting [4]) worked out at 3 ± 0.4 %ID; in series [3] (40 pmol, Activity in body) it was 5 ± 0.2 %ID; in series [3] (setting [8]), 1.7 ± 0.2 %ID; in series [3] (Activity in body) it was 4.1 ± 0.6 %ID. Further, the tissue uptake dose at 3 h in series [3] (setting [4]) is 2 ± 1 %ID; in series [3] (40 pmol, Activity in body), 2 ± 1 %ID. The tissue uptake at 1 h in series [3] (setting [5]) is less than 1 %ID/g; in series [3] (setting [6]) it was less than 5 %ID/g; in series [3] (setting [7]), 14 ± 3 %ID/g. Besides, the tissue uptake at 3 h in series [3] (setting [7]) was found to be 13 ± 1 %ID/g.

Consider `CC(C)C[C@H](NC(=O)C[C@H](O)[C@H](CC(C)C)NC(=O)[C@H](Cc1c[nH]cn1)NC(=O)CN(C)C(=O)[C@@H](NC(=O)[C@H](C)NC(=O)[C@H](Cc1c[nH]c2ccccc12)NC(=O)[C@H](CCC(N)=O)NC(=O)[C@@H](Cc1ccccc1)NC(=O)COCCOCCNC(=O)CCC(C(=O)O)N1CCN(CC(=O)O)CCN(CC(=O)O)CC1)C(C)C)C(N)=O` (stereo partly drawn) [[^68Ga]Ga-NODAGA-PEG2-[Sar^11]RM26, metal not drawn], for which the tissue uptake dose at 1 h in series [3] (setting [4]) turned out to be 2.5 ± 0.3 %ID; in series [3] (40 pmol, Activity in body) it was 3.8 ± 0.6 %ID; in series [3] (setting [8]), 1.6 ± 0.2 %ID; in series [3] (Activity in body), 4 ± 3 %ID. Moreover, the tissue uptake dose at 3 h in series [3] (setting [4]) was found to be 1.8 ± 0.7 %ID; in series [3] (40 pmol, Activity in body), 2.2 ± 0.9 %ID. The tissue uptake at 1 h in series [3] (setting [5]) was less than 1 %ID/g; in series [3] (setting [6]), less than 5 %ID/g; in series [3] (setting [7]), 17 ± 3 %ID/g. Moreover, in series [3] (setting [7]), the tissue uptake at 3 h came out at 15 ± 3 %ID/g.
